# Measured values: publication PMC10837352
# Molecular target: N‐terminal TadA‐8e (split site R74) fused to nMagHigh1 (UniProt P68398)
substance,measurement,value
pMag fused to C‐terminal TadA‐8e (split site R74) and nCas9 (from UniProt P68398 75-167),"adenine base editing at the ABES4 and ABES6 targets in E. coli DH10B, level 2‐BLABE (nMagHigh1‐pMag), in the absence of blue light, Sanger sequencing",3%
same,"adenine base editing at the ABES4 and ABES6 targets in E. coli DH10B, level 2‐BLABE (nMagHigh1‐pMag), in the presence of blue light (10 mW cm^−2, 6 h), Sanger sequencing",90%
